# Results published in patent US20220119534A1 (DRAGONFLY THERAPEUTICS, published 2022).
# Positions count from the first letter of the chain named. Names and notes keep the numbering of the source. Values joined by “and” are separate entries in the source; they are usually repeats but may differ in a detail not shown here. Equal values may be shown once.
# T1: mFc-hNKG2D (human, UniProt P26718 73-216)
# T1 construct: extracellular domain; Made in house (Dragonfly Tx); the order of tag and ECD follows the name mFc-hNKG2D; also called mFc-tagged human NKG2D; not shown: mouse Fc tag
# T1 sequence (looked up): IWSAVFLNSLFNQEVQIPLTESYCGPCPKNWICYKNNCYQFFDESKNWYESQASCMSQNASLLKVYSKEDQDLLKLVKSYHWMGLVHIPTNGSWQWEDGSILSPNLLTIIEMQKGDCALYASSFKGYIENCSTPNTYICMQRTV
# T2: Human CLEC12A-His (human, UniProt Q5QGZ9 65-265)
# T2 construct: Recombinant soluble protein made in house (Dragonfly Tx); The hCLEC12A spot of the HuProt array is written under this molecule as well; also called hCLEC12A-His; hCLEC12A; not shown: His tag
# T2 sequence: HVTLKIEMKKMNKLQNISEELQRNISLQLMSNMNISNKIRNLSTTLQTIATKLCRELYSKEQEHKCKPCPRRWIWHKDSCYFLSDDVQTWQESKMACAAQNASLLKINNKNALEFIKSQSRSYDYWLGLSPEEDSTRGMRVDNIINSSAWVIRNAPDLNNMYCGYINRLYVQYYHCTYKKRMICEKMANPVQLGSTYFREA
# T3: mFc-hNKG2D (human, UniProt P26718 73-216)
# T3 construct: extracellular domain; Recombinant mFc-tagged NKG2D dimer, made in house; also called human NKG2D; not shown: mouse Fc tag
# T3 sequence (looked up): T1 sequence (looked up)
# T4: Human CLEC12A-His (human, UniProt Q5QGZ9 65-265)
# T4 construct: Recombinant soluble protein made in house; also called hCLEC12A-His; hCLEC12A; not shown: His tag
# T4 sequence: T2 sequence
# T5: Human CLEC12A-His (recombinant, K244 WT) (human, UniProt Q5QGZ9 65-265)
# T5 construct: Made in house (Dragonfly Tx); also called hCLEC12A; hCLEC12A-His; not shown: His tag
# T5 sequence: T2 sequence
# T6: mFc-hNKG2D (recombinant mFc-tagged human NKG2D dimer) (human, UniProt P26718 73-216)
# T6 construct: extracellular domain; Made in house; not shown: mouse Fc tag
# T6 sequence (looked up): T1 sequence (looked up)
# T7: Human CLEC12A expressed on cells (Ba/F3-hCLEC12A, PL21, HL60) (human, UniProt Q5QGZ9 1-265)
# T7 sequence: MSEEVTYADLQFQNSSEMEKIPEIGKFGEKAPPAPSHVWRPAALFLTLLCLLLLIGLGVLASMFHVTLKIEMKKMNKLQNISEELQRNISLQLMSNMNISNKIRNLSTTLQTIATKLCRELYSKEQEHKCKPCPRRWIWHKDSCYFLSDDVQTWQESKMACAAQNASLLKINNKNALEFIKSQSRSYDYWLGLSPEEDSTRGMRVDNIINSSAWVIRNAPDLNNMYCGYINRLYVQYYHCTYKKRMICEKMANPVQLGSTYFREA
# B1: F3'-1602 TriNKET (bispecific antibody, human IgG1, kappa)
# chain: QLQLQESGPGLVKPSETLSLTCTVSGFSLTNYGLHWIRQPPGKCLEWIGVIWSGGKTDYNPSLKSRVTISKDTSKNQFSLKLSSVQAADTAVYYCAKYDYDDSLDYWGQGTLVTVSSGGGGSGGGGSGGGGSGGGGSDIQMTQSPSSLSASVGDRVTITCHASQNINFWLSWYQQKPGKAPKLLIYEASNLHTGVPSRFSGSGSGTRFTLTISSLQPEDIATYYCQQSHSYPLTFGCGTKLEIKGSDKTHTCPPCPAPELLGGPSVFLFPPKPKDTLMISRTPEVTCVVVDVSHEDPEVKFNWYVDGVEVHNAKTKPREEQYNSTYRVVSVLTVLHQDWLNGKEYKCKVSNKALPAPIEKTISKAKGQPREPRVYTLPPCRDELTKNQVSLTCLVKGFYPSDIAVEWESNGQPENNYKTTPPVLVSDGSFTLYSKLTVDKSRWQQGNVFSCSVMHEALHNHYTQKSLSLSPG
# heavy: EVQLVESGGGLVKPGGSLRLSCAASGFTFSSYSMNWVRQAPGKGLEWVSSISSSSSYIYYADSVKGRFTISRDNAKNSLYLQMNSLRAEDTAVYYCARGAPIGAAAGWFDPWGQGTLVTVSSASTKGPSVFPLAPSSKSTSGGTAALGCLVKDYFPEPVTVSWNSGALTSGVHTFPAVLQSSGLYSLSSVVTVPSSSLGTQTYICNVNHKPSNTKVDKKVEPKSCDKTHTCPPCPAPELLGGPSVFLFPPKPKDTLMISRTPEVTCVVVDVSHEDPEVKFNWYVDGVEVHNAKTKPREEQYNSTYRVVSVLTVLHQDWLNGKEYKCKVSNKALPAPIEKTISKAKGQPREPQVCTLPPSRDELTENQVSLTCLVKGFYPSDIAVEWESNGQPENNYKTTPPVLDSDGSFFLYSWLTVDKSRWQQGNVFSCSVMHEALHNHYTQKSLSLSPG
# light: DIQMTQSPSSVSASVGDRVTITCRASQGISSWLAWYQQKPGKAPKLLIYAASSLQSGVPSRFSGSGSGTDFTLTISSLQPEDFATYYCQQGVSFPRTFGGGTKVEIKRTVAAPSVFIFPPSDEQLKSGTASVVCLLNNFYPREAKVQWKVDNALQSGNSQESVTEQDSKDSTYSLSSTLTLSKADYEKHKVYACEVTHQGLSSPVTKSFNRGEC
# notes: Trispecific F3' format: CLEC12A scFv-Fc paired with NKG2D Fab-Fc; Stressed and control samples of the stability studies are the same molecule; also called AB0237
# B2: AB0192 TriNKET (other)
# chain: EVQLVESGGGVVQPGGSLRLSCAASGFTFNAFGMHWVRQAPGKCLEWVAFISSGSTSIYYANTVKGRFTISRDNSKNTLYLQMNSLRAEDTAVYYCARDGYPTGGAMDYWGQGTSVTVSSGGGGSGGGGSGGGGSGGGGSDIQMTQSPSSLSASVGDRVTITCKASQDIYNYLSWFQQKPGKAPKPLIYRANILVSGVPSRFSGSGSGQDYTFTISSLQPEDIATYYCLQFDAFPFTFGCGTKLEIKGSDKTHTCPPCPAPELLGGPSVFLFPPKPKDTLMISRTPEVTCVVVDVSHEDPEVKFNWYVDGVEVHNAKTKPREEQYNSTYRVVSVLTVLHQDWLNGKEYKCKVSNKALPAPIEKTISKAKGQPREPRVYTLPPCRDELTKNQVSLTCLVKGFYPSDIAVEWESNGQPENNYKTTPPVLVSDGSFTLYSKLTVDKSRWQQGNVFSCSVMHEALHNHYTQKSLSLSPG
# heavy: B1 heavy
# light: B1 light
# notes: the condition stands under assay; also called AB0192 Lot AB0192-005
# B3: AB0089 TriNKET (bispecific antibody, human IgG1, kappa)
# chain: B1 chain with S53V, K56A, K71V, Y98G, D101G, S103T, R207D, I220F
# heavy: B1 heavy
# light: B1 light
# notes: F3' format heterodimer of three chains; human IgG1 Fc with EW-RVT and Y349C/S354C mutations; also called AB0089 Lot AB0089-002; CLEC12A TriNKET AB0089
# How the values were obtained:
# mFc-hNKG2D [1] = target: T1, mFc-hNKG2D; experiment: SPR Biacore 8K 37 C; mFc-hNKG2D captured on anti-mFc chip, TriNKET as analyte; 1:1 kinetic fit; control sample
# Procedure: (§1) Association was monitored for 60 seconds and dissociation was monitored for 60 seconds. Surfaces were regenerated between cycles with three pulses of 10 mM glycine-HCl, pH 1.7 injected for 20 seconds at 100 μL/min. HBS-EP+ (1×) buffer was used throughout the experiment. Data were analyzed using Biacore 8K Insight evaluation software (GE Healthcare).
# mFc-hNKG2D [2] = target: T1, mFc-hNKG2D; experiment: SPR Biacore 8K 37 C; mFc-hNKG2D captured on anti-mFc chip, TriNKET as analyte; 1:1 kinetic fit; after 2 wks 40 C at pH 8.0
# Procedure: as §1
# mFc-hNKG2D [3] = target: T1, mFc-hNKG2D; experiment: SPR Biacore 8K 37 C; mFc-hNKG2D captured on anti-mFc chip, TriNKET as analyte; 1:1 kinetic fit; control sample, n=3
# Procedure: as §1
# Human CLEC12A-His [4] = target: T2, Human CLEC12A-His; experiment: SPR Biacore 8K 37 C; TriNKET captured on anti-hFc chip, hCLEC12A-His as analyte; 1:1 fit; un-oxidized control, n=2
# Procedure: Briefly, human Fc specific antibodies were covalently immobilized at a density ˜8000-10000 resonance units (RU) on carboxy methyl dextran matrix of a CM5 biosensor chip via amine-coupling chemistry to create an anti-hFc IgG chip. […] Association was monitored for 300 seconds and dissociation was monitored for 600 seconds. Surfaces were regenerated between cycles with three pulses of 10 mM glycine-HCl, pH 1.7 injected for 20 seconds at 100 μL/min. HBS-EP+ (1×) with 0.1 mg/mL BSA buffer was used throughout the experiment. Data were analyzed using Biacore 8K Insight evaluation software (GE Healthcare). The kinetic rate constants and overall affinity were obtained using 1:1 kinetic fit binding model (FIGS. 71A-71B).
# Human CLEC12A-His [5] = target: T2, Human CLEC12A-His; experiment: SPR Biacore 8K 37 C; TriNKET captured on anti-hFc chip, hCLEC12A-His as analyte; 1:1 fit; after 4 wks 25 C in CST pH 7.0, n=2
# mFc-hNKG2D [6] = target: T1, mFc-hNKG2D; experiment: SPR Biacore 8K 37 C; mFc-hNKG2D captured on anti-mFc chip, TriNKET as analyte; kinetics fit
# Procedure: Association was monitored for 60 seconds, and dissociation was monitored for 60 seconds. Surfaces were regenerated between cycles with three pulses of 10 mM glycine-HCl (pH 1.7) injected for 20 seconds at 100 μL/min.
# Two different fits were utilized to obtain the equilibrium affinity data: steady state affinity fit and kinetic fit.
# Human CLEC12A-His [7] = target: T2, Human CLEC12A-His; experiment: SPR Biacore 8K 37 C; TriNKET captured on anti-hFc chip, hCLEC12A-His as analyte; 1:1 fit; pH 8.0 control, n=2
# mFc-hNKG2D [8] = target: T3, mFc-hNKG2D; experiment: SPR; control sample (forced oxidation study)
# Human CD16a V158 = target: T8, Human CD16a V158 (human, UniProt P08637 17-208, biotinylated); experiment: SPR; control sample (forced oxidation study)
# T8 construct: Bought recombinant receptor; also called hCD16a (V158); hFcγRIIIa V158
# T8 sequence (P08637 17-208 F176V limits assumed): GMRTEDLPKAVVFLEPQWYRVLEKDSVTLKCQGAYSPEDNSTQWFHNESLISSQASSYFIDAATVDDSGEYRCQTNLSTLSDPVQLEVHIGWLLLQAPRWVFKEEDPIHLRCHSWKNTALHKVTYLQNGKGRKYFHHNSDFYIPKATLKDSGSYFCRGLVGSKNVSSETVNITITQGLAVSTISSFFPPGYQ
# Human CLEC12A-His [9] = target: T4, Human CLEC12A-His; experiment: SPR; control sample (forced oxidation study)
# [10] = target: T5, Human CLEC12A-His (recombinant, K244 WT); experiment: SPR, two-state fit (ka1); control (fully purified protein study)
# Procedure: (§2) Briefly, human Fc specific antibodies were covalently immobilized at a density ˜8000-10000 resonance units (RU) on carboxy methyl dextran matrix of a CM5 biosensor chip via amine-coupling chemistry to create an anti-hFc IgG chip. […] Association was monitored for 300 seconds and dissociation was monitored for 600 seconds. Surfaces were regenerated between cycles with three pulses of 10 mM glycine-HCl, pH 1.7 injected for 20 seconds at 100 μl/min. HBS-EP+ (1×) with 0.1 mg/ml BSA was used as running buffer throughout the experiment. Experiments were performed at physiological temperature of 37° C. To obtain kinetic rate constants and overall binding affinity, double-referenced data were fit to a two-state kinetic model using Biacore 8K Insight Evaluation software (Cytiva).
# [11] = target: T5, Human CLEC12A-His (recombinant, K244 WT); experiment: SPR, two-state fit (kd1); control (fully purified protein study)
# Procedure: as §2
# [12] = target: T9, Human CD16a V158 (FcγRIIIa V158) (human, UniProt P08637 17-208, biotinylated); experiment: SPR; after low pH hold
# T9 construct: Bought recombinant receptor; also called hCD16aV; hFcγRIIIa V158
# T9 sequence (P08637 17-208 F176V limits assumed): as above
# [13] = target: T6, mFc-hNKG2D (recombinant mFc-tagged …); experiment: SPR; after low pH hold
# [14] = target: T7, Human CLEC12A expressed on cells …; experiment: cell-based or functional assay
binder,measurement,setting,value
B1,Kd,mFc-hNKG2D [1],760 nM
same,koff,mFc-hNKG2D [1],0.129 s⁻¹
same,kon,mFc-hNKG2D [1],170000 M⁻¹ s⁻¹
same,Kd,mFc-hNKG2D [2],905 nM
same,koff,mFc-hNKG2D [2],0.122 s⁻¹
same,kon,mFc-hNKG2D [2],135000 M⁻¹ s⁻¹
same,Kd,mFc-hNKG2D [3],661 nM
same,koff,mFc-hNKG2D [3],0.139 s⁻¹
same,kon,mFc-hNKG2D [3],211000 M⁻¹ s⁻¹
same,Kd,Human CLEC12A-His [4],1.1 nM
same,koff,Human CLEC12A-His [4],0.000858 s⁻¹
same,kon,Human CLEC12A-His [4],799000 M⁻¹ s⁻¹
same,Kd,Human CLEC12A-His [5],0.91 nM
same,koff,Human CLEC12A-His [5],0.000719 s⁻¹
same,kon,Human CLEC12A-His [5],788000 M⁻¹ s⁻¹
same,Kd,mFc-hNKG2D [6],703 nM and 705 nM and 745 nM and 732 nM
same,Kd,Human CLEC12A-His [7],1.1 nM
same,koff,Human CLEC12A-His [7],0.00084 s⁻¹
same,kon,Human CLEC12A-His [7],801000 M⁻¹ s⁻¹
B2,Kd,mFc-hNKG2D [8],598 nM
same,koff,mFc-hNKG2D [8],0.124 s⁻¹
same,kon,mFc-hNKG2D [8],208000 M⁻¹ s⁻¹
same,Kd,Human CD16a V158,177 nM
same,koff,Human CD16a V158,0.0202 s⁻¹
same,kon,Human CD16a V158,115000 M⁻¹ s⁻¹
same,Kd,Human CLEC12A-His [9],1.68 nM
same,koff,Human CLEC12A-His [9],0.00129 s⁻¹
same,kon,Human CLEC12A-His [9],771000 M⁻¹ s⁻¹
B3,kon,[10],1.03e+07 M⁻¹ s⁻¹
same,koff,[11],0.0272 s⁻¹
same,Kd,[12],314 nM
same,koff,[12],0.0274 s⁻¹
same,kon,[12],87300 M⁻¹ s⁻¹
same,Kd,[13],941 nM
same,koff,[13],0.15 s⁻¹
same,kon,[13],159000 M⁻¹ s⁻¹
same,"EC50, KHYG1-CD16aV cytotoxicity assay; after forced oxidation",[14],0.16 nM
same,"EC50, KHYG1-CD16aV cytotoxicity assay; control sample",[14],0.11 nM
